Assay: label from the status in PepcDB records

| Sequence | protein production |
| --- | --- |
| MSLTTSHFIPFPREMVWDWHTRKGAVARLTPPFIPLNPITQAERLADGTTIFSLPAGLKWVARHDLSGFLNGSRFTDVCLTAPVKALANWRHVHNFVDQDGGTLITDSVSTRLPASTLTGMFAYRQTQLIEDLKFLSRTSTLFDGSPLTVAITGSRGLVGRALTAQLQTGGHEVIQLVRKEPKPGKRFWDPLNPASDLLDGADVLVHLAGEPIFGRFNDSHKEAIRESRVLPTKFLAELVAESTQCTTMISASAVGFYGHDRGDEILTEESESGDDFLAEVCRDWEHATAPASDAGKRVAFIRTGVALSGRGGMLPLLKTLFSTGLGGKFGDGTSWFSWIAIDDLTDIYYRAIVDAQISGPINAVAPNPVSNADMTKILATSMHRPAFIQIPSLGPKILLGSQGAEELALASQRTAPAALENLSHTFRYTDIGAAIAHELGYEQLADFAQQQEIEAERKQERAELKAAKKIAKKAPVLEESPTNLEDPEEVEQSILSSILNFRRKRNDLEHHHHHH | not failed |
| MSLVGKTLSGRYRVVRPLARGALARVYLAFDPFGTPYALKLFPPKARPRRDRELWVGRRLAHPNLNPVLEALDLEEGPALLLAYAPGEELGRWMGKSPAFSQAMRVFHQLLLALAHMHEKGLVHRDVKPENILVNAGEARLLDFDLSGPAQERFQKPLLLGTPAYLAPELLRGLPSGPEADVYAAGIILYWMLTGEHPFADPSGRVSLDPDRGPHPPVAGLGEEAALYLERLLAPDPKARFPTAQEALKAFPF | failed |
| MSLVLMAQATKPEQLQQLQTTYPDWTFKDAAAVTAADYDQIEVMYGNHPLLKTILARPTNQLKFVQVISAGVDYLPLKALQAAGVVVANTSGIHADAISESVLAAMLSVVRGYHAAWLNQRGARQWALPMTTSTLTGQQLLIYGTGQIGQSLAAKASALGMHVIGVNTTGHPADHFHETVAFTATADALATANFIVNALPLTPTTHHLFSTELFQQTKQQPMLINIGRGPAVDTTALMTALDHHQLSMAALDVTEPEPLPTDHPLWQRDDVLITPHISGQIAHFRATVFPIFAANFAQFVKDGTLVRNQVDLNRGYEGHHHHHH | not failed |
| MSLVMSGEKMKVIIVEDEFLAQQELSWLINTHSQMEIVGSFDDGLDVLKFLQHNKVDAIFLDINIPSLDGVLLAQNISQFAHKPFIVFITAWKEHAVEAFELEAFDYILKPYQESRIINMLQKLTTAWEQQNNAAEGHHHHHH | not failed |
| MSLVVFLIAYVIRRRLDRADHLAGDEVWRNWFHRWGRVEAGQERSVWRGALLVVLPSLALAGAWALSSEAGYRYALYPLELVLMVVLMGAPGWRKVLRAYSDAWRRGDMQAAWHHVQERLPASERGAALSPEAMHLSVSRALMVSVFERFFLVVFWYAVGGIALAFLARGLVALAGQWPQAAARERYQRAARLIGWIPSRLLSCTFGLAGDLAGWSREIRKVFPGFGKKTADVLMISANGSLTGYALDPARFSELHPEEWPDFGGRSLSAIRDLLNRSMLVWICAFALLVIAGMA | failed |
| MSLYEWLNALPKAELHLHLEGTLEPELLFALAERNRIALPWNDVETLRKAYAFNNLQEFLDLYYAGADVLRTEQDFYDLTWAYLQKCKAQNVVHVEPFFDPQTHTDRGIPFEVVLAGIRAALRDGEKLLGIRHGLILSFLRHLSEEQAQKTLDQALPFRDAFIAVGLDSSEVGHPPSKFQRVFDRARSEGFLTVAHAGEEGPPEYIWEALDLLKVERIDHGVRAFEDERLMRRLIDEQIPLTVCPLSNTKLCVFDDMSQHTILDMLERGVKVTVNSDDPAYFGGYVTENFHALQQSLGMTEEQARRLAQNSLDARLVKEGHHHHHH | not failed |
| MSMATPSSAQRFNDRVAAYVRYRPSYPPQLLRWLHGELGVTPATAVADIGAGTGISSRLFLEAGYAVTAVEPNQAMREAALQWLAEFPKFQAIDGTAEATGLADASVGLVSAAQAFHWFDMQAVRDEWARILQPGGLAVVYWNSRELDSTAFLRGYEQLLLDYGTDYSAVAERYQDDATMQAWFGEGFRAMARFPNVQRLDFESLRGRLLSSSYAPLAHDPRHAPMLAALRTLFDAYAHDGLIDFQYQTRVFAGRLN | failed |
| MSMNQFRTMEEEKQDGGELFHTIEVAKVDRNNVSQPPPAATAALLEVPGDELNLIPPLNFSMVDNGIFRSGFPDSANFSFIKTLGLRSIISLCPEPYPENNMQFLKSNGISLFQFGIEGSKSKEPFVDILDQKIREALKVLLDEKNHPLLIHCKRGKHRTGCLVGCMRKLQKWCITSILDEYKRFAAAKARVSDQRFLESFDVSGLKHTPMSFSCSNR | failed |
| MSMVGAIILSIIIGIAAFFIHPLLYIGLALMGLIGWQRVRREREHFHTRVLRIRADYVVPFLPGLIAGSLLSLVTIVIGLTVSIDWLWLLLIVYLLTIVTMNIRWISPAYVGAFMIGVVLLAPFVTTGWPWFDERLQSASQIPVLVIMYLTVLLLSAEGMLIAKRGGSFSSPVVVRSKRGKWVGFHRVKRLWLLPVVLFIPEGAIPTFSFWPILTVAGVSLQPLVVPFLIGTDFKIWSSLPKVVSRKVGNQVLGLALTLALIVCITWYVPWLSVLFAIVAIVGREGIHLMAKIKDRSSTSLFTNQGTGCKVLGILPGSPAEKMGIKIGETILRVNGKMVNNEYSFYEALQENSAFCRLEVIDKAGEVRFAQGALYDGEHHQLGVLLVKEDRELQDSVI | failed |
| MSNAVSAENEGPGAIPGLLHLSGPCVYVAGSQGVSMTQTMPIGAVIAPVTPLQQNCTIVWCAKTLKAAVIDPGGEVDRLLKAIADKGLTLEKIWITHGHMDHAGGAAELKARTGVPIEGPHKDDQFWIDRIQDSGEMYGMPEARIFVTDRWLDDGDTVTLGETEFEVFHCPGHTPGHVVFFHRETKFAQVGDVLFQGSIGRTDFPMGNHQDLIDSITQKLWPLGEDVRFVPGHGPMSTFGAERRGNPFVGDRVVAAMKAQGAGFTIPKNNSPG | failed |
| MSNDQSAMNELHWLIDMVQTIEVGLVVLDRDYNIQLWNGFMENHSGVSPNSIKGQNLFSRFPDLPATWLKQKMESVFMLKNRAFISWEQRPYVFQFKNYRPITGRADFMYQNVTLLPLASLTGKITHISVIVYDVTDIAVNKLQLKAANEQLERLSQTDGLTQLHNRRHWQQCLEHEYDLYARYSGIASLVMIDIDHFKNINDTYGHLAGDKVIQHIAHILSHSLRETDCAGRYGGEEFAVVMPSTCGADALNFTERLREKIASSTVVYEGLKIKVTVSLGVCELGKHISSSSSWISCSDKALYEAKQKGRNCTVLHCAPTSAE | failed |
| MSNEISLCMIVKNEEKYLFQCLDSVKDIVDEIIIVDTGSTDKTVEIAKKFGAEIHYFMWNNSFSDARNESLKYATKDWIFIMDGDDEFSKDDKEKFKELVKNNLKEDCLYYFETLSYCGEFVDSSNISVNLNPRLFKNNYGYKYEGIVHNQLINTEKEIKNVIYNIRIYHYGYLEDVSKKKNKRGRNIPLLKKQLKENPDDRFAHFNIGNEYYAIGDLQKALTHYCEAYKDFNPSSGFGFVLITRLIVTNFGIGKHEKAIEFADIGLEYYPNATDIYFLKALIYEATRRPTLAIKALKRCIEMGEPPSNLKLYYGTWSFKALYELVNIYMGLKDYEEAYKYCIETIKAKNDFVNPVYVIGHILKERKTPIEEFKVELEKLFSDYPKAYFFIANILYDEGYFNEALEYTDKCEKEGLNSDAILDLKLKAMIRAQKFNECAEANYFAKESVFYFNASMYKVLSLVLIGKFKEALKDLEIFKDGKLKRQDKKELEVYSQFVKLFMNEETKVLSEDKEDKEYTGFILDICDILLSNKLYDEFEKALNLFNLISDENVLLNLSKLYYKHGIESMAKKEAIRSIKEFEVFDNEILDILR | failed |
| MSNELLMSSAEYPAHQENKRFRGASSQNITVILPACNNEVSIGSLILLTRLYADNVIVVDDGSTDRTVEISRKAGAHVIVNEACKGKVGSLRTGFTAAADLGADIIVTMDPDGQHNPAEIPRIVAPIIDGTAEMVNGSRYLNYPGKNSSVYSRTGQTMQDISANMNFNLKITDTQSGFRAYAASTKSIFRFSGKKTAIENEMLADAGRSGIRIAEVEIGACTSVGASIRDPVKYTLGALRTMAEDIEANKPLYFYSVPGFALATCGFFMGFKFMADYFFGIASLNFGHTFLMVFLALAGAYMTLRGIIAHSMAGAARQTDST | failed |
| MSNESETDVDEETADEEEQAEGLQKGDVVKLAYTARTVDGGQLVDTTDEEVAEDDGIDTEQQEFGPRTIVLGENHIFPDVEQDIYGKEVGDEGDVTVAAADAFGEYDEEEVRTVSKDKIPEDDRYPGAHVDLEGEHGHVETIIGGRARVDFNHPLAGEDVEYDYEVLEEVTDREEKAQGIIQMMLDMELDVWFETDTVEEEQLVESEDEDEDEESEPEYETVEVEKETLYIEATPQLTMNQQWMMGKQQIAQQLTQLLDIDRIIVQEEIGGGGMGMPGMMGGMGGAGGADIEDALEDADVDAEEIVEEIEGAEE | failed |
| MSNFFKQTLASLLGTLLGLFLFAGAGTTGLLLLLFAAASSSNTGPVVKDKSVVVFDLSMNITDREPSAGEELQNRFSGVTQERMTLRNVIDSLEKAQRDKRIVAIYLDGSRGGNNLGFASLKEIRKALEEFRKSGKKVIAYGVAWDEKEYYLSSVADTIALNPLGGLEINGLSSQPMFLAGALQKYGIGVQVVRAGKFKGAVEPFLLDKLSPENREQTQKLLDDVWGEWRTTVGNSRKINPQKLQAIADNQSLLEATEAKTNGLVDQVAYNDQVVADLKKLTGSNKKDNTFTQISLRRYAQVPGQSLGLEKNSKNKIAVVYAEGDIVDGKGDDGQIGGDRFARIFNKIRQDENVKAVVLRINSPGGSATASEVMQREIRLTRESKPVVVSMGDYAASGGYWIATDSNRIFAEPNTITGSIGVFGVLFNGQKLANDNGITWDAVKTARYADSQTVARPKSPQEIAIYQRSVDRIYNMFVNKVAQGRKLPTQKVAEIAQGRVWSGVTAKQIGLVDEIGGLNAAIEYAAKAAKLGKDWQLREYPRESSFEERFFGGVVEEISTTLGIKKLDVKPNDPLTVQIQKIQQEISILQTMNDPQGVYARLPINLKIE | failed |
| MSNIIVLSGSPRKGGNTDLLVDAFVKGAEKSNNVEVVSVAYYKVNPCIGCNSCFDRAGHECFQQDDMQIVYDKLKCADVIVVASPVYFYGVSAQLKAIIDRLHTPMRNDFKVKKLALILVGAAVLPELFDSIKIQYQLVLNFFKLEDAGMVLVRGAKDKGDVRNTDGLDEAYRLGLAME | failed |
| MSNKRKLWQIFGPVLCAFILLIILFLIPWQNGEKSDNALFKASVSQSQTVFKGQSIKQAAFEKNYVPFYGSSELSRMDALHPSVLAYKYKRNYRPFLLGGPGSQSLTHFFTMQETVNQLSNKKAVFIISPQWFTKQGQNPAAFGMYFSQLQAVDWILTAKDSVATRYAARRLLDMPAGTASETTKYALMTLASGQKLSKYQTLYLKARRRMLANEDNFFSSIGMTNNIPKIQKEAGKLPGTYAYDNLRQFANEQGQQGTTNNKFGISNGFFDKKLNNKHLKHLKNSQRDFDYTQSPEYADFELVLNELAHEHVNVLFIIPPVNEKWAKYTGLSQTMYQECVAKITKQLTSQGFNNIANLSKDGGKKFFMEDTIHLGWNGWLKVDQYVKPFMEEKNHPVNYKLNSYYFTKAWGNKTNVKMPNVKSKAAVDIKKN | failed |
| MSNRIKNIHYGTQRQQLKNLTKKEYQALREMCFLAKNLYNVGTYNVRQHYFNQGEHLNYEANYHVCKENENYKLLNSNIAQQILKEVDSSFRSFFGLIKLAKEGKYDFRGIKSPKYLDKEGFFSIIIGQIRIKEDGILNVPMSPAFKKLYGKVSIKVPQNILEKKIKEIRIIPKHKARFFEIQYCYEIPKSEEVSNQKNALAIDLGLENLCTCVTNLGDSFIIDGKRLKSVNQWANKQNDKIEALKLKKNITAITRKQFKVWNKRNNQVKDYVNKTCFYIIDYCVKNNIGNLIVGYNAKLEKSDNMERKIYRNFIRIPFGEIKGKLEYLCKIKNINFIRQEESYTSKSDFFADDFLPDINVDNVKKYDFKGERITRGQYKSSVGIIINADVNASLNILKKSQVVNLSNLQNNPQILKQPQRVRIS | failed |

Source: a protein production outcome set (Wang et al. 2014)
